Experimental findings from patent US20220259298A1 (KYOTO UNIVERSITY, published 2022) are described below.

For assay [1], the target named is T1, N-terminal PA-tagged mouse USAG-1 (WISE) recombinant protein (mouse, UniProt Q9CQN4 24-206).
T1 sequence (looked up): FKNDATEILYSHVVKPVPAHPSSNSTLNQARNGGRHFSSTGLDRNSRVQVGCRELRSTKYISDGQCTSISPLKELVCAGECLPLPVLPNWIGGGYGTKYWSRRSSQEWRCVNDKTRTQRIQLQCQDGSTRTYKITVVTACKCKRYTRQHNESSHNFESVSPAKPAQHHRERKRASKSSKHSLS
In words: cell-based or functional assay.

Assay [2] deals with T1, N-terminal PA-tagged mouse USAG-1 …. In words: BLI (Octet), antibody immobilized on the biosensor, mouse USAG-1 at 10, 30, 100 nM, global fitting. The method, then: For 8 out of the 9 antibodies grouped in Example 8, affinities (KD values) were determined by using the same Octet-based BLI method as in Example 8. […] The affinities were calculated by subjecting the obtained curves to global fitting with an analysis program attached to the Octet device.
For orientation: Biolayer interferometry detects binding as a change in optical thickness at a sensor tip.

Assay [3] has as its target T2, human FLAG-tagged USAG-1 transiently forcibly expressed in HEK293 cells (human, UniProt Q6X4U4 24-206).
T2 construct: whole, on cells; Immunostaining of transfected cells; not shown: FLAG tag
T2 sequence (looked up): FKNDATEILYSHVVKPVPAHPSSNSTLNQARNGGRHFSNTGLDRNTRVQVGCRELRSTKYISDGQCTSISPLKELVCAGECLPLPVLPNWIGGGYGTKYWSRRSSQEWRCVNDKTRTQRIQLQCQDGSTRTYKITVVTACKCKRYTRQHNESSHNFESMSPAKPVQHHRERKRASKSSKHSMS
In words: immunostaining of HEK293 cells transiently expressing human FLAG-tagged USAG-1.

Assay [4] has as its target T3, human USAG-1 protein (human, UniProt Q6X4U4 24-206).
T3 construct: mature
T3 sequence (looked up): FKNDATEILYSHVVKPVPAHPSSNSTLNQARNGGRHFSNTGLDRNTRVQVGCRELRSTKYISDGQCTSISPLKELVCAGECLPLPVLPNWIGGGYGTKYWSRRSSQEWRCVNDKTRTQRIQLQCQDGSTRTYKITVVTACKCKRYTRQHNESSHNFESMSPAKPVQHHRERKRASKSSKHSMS
Description: solid-phase ELISA of the hybridoma clone on the immunizing antigen (E. coli-derived human USAG-1, R & D systems), paragraph 134. For orientation: An ELISA detects its analyte on a solid surface through an enzyme-linked reagent.

Assay [5] deals with T4, 15 amino acid peptide for epitope mapping RCVNDKTRTQRIQLQ (SEQ ID NO: 35) (human).
T4 peptide: RCVNDKTRTQRIQLQ
In words: peptide array on cellulose membrane, HRP-conjugated anti-mouse antibody, ECL. The protocol:
(§1) Briefly, 169 overlapping peptides of 15 amino acids were synthesized based on a human USAG-1 protein sequence (183 amino acid length) excluding a signal peptide by shifting the 15 amino acid sequence from the beginning by one amino acid to prepare a peptide library. The 169 kinds of peptides were bound onto a cellulose membrane to prepare a peptide array. […] After washing, an HRP-conjugated anti-mouse antibody (1/25000 dilution) was added as a secondary antibody, and ECL solution was used for color development.

The target in assay [6] is T5, 15 amino acid peptide for epitope mapping EWRCVNDKTRTQRIQ (SEQ ID NO: 33) (human).
T5 peptide: EWRCVNDKTRTQRIQ
Described as above. The protocol: as §1

The target of assay [7] is T6, 15 amino acid peptide for epitope mapping VNDKTRTQRIQLQCQ (SEQ ID NO: 37) (human).
T6 peptide: VNDKTRTQRIQLQCQ
Described as above. The method, then:
as §1

Assay [8] concerns the target T7, 15 amino acid peptide for epitope mapping QEWRCVNDKTRTQRI (SEQ ID NO: 32) (human).
T7 peptide: QEWRCVNDKTRTQRI
Described as above. The method, then: as §1

For assay [9], the target named is T8, 15 amino acid peptide for epitope mapping CVNDKTRTQRIQLQC (SEQ ID NO: 36) (human).
T8 peptide: CVNDKTRTQRIQLQC
The assay is described as above. The protocol:
as §1

Assay [10] deals with T9, 15 amino acid peptide for epitope mapping WRCVNDKTRTQRIQL (SEQ ID NO: 34) (human).
T9 peptide: WRCVNDKTRTQRIQL
The description is as above. The protocol: as §1

In assay [11] the target is T3, human USAG-1 protein. Description: solid-phase ELISA of the hybridoma clone on the immunizing antigen (E. coli-derived human USAG-1, R & D systems), paragraph 134. This is another data set of the same source.

Where two headings read alike, the source gives them in different places.

B1: mouse anti-USAG-1 neutralizing antibody C (B14) (antibody, V domains shown)
VH: EVQLQQSGPELVKPGASVKISCKASGYSFTGYYMNWVKQSPEKSLEWIGEINPTTGGTTYNQKFKAKATLTVDKSSSTAYMQLKSLTSEDSAVYYCARLHYDYDGVGYAMDYWGQGTSVTVSS
VL: DIVMTQSHKFMSTSVGDRVSITCKASQDVSTAVAWYQQKPGQSPKLLIYSASYRYTGVPARFTGSGSGTDFTFTISSVQAEDLAVYYCQQHYSTPPTFGGGTKLEIKR
notes: Raised against baculovirus-derived rat USAG-1
The term Kd denotes the equilibrium constant for the complex coming apart. On to B1, for which, in [1], the “EC50 against the BMP signaling inhibition by USAG-1 (BMP ALP assay, C2C12 cells, BMP7)” value was found to be 0.298 mg/L and the “EC50 against the Wnt signaling inhibition by USAG-1 (WNT reporter assay, luciferase)” value turned out to be 4.73 mg/L. Besides, the Kd in assay [2] was 4.21 nM.

B2: mouse anti-USAG-1 neutralizing antibody E (B103) (antibody, mouse IgG1, kappa, V domains shown)
VH: DVQLQESGPGLVKPSQSLSLTCSVTGYSITSGYYWNWIRQFPGNKLEWMGCISYDGSNNYNPSLKNRISITRDTSKNQFFLKLNSVTTEDTATYYCARGGLLWGQGTTLTVSS
VL: DIQMTQSPSSLSASLGERVSLTCRASQEISGYLSWLQQKPDGNIKRLIYAASTLDSGVPKRFSGSRSGSDYSLTISRLESEDFADYYCLQYASYPWTFGGGTKLEIKR
notes: as for B1
As for B2, the Kd in assay [2] turned out to be 4.97 nM.

B3: mouse anti-USAG-1 neutralizing antibody B (E57) (antibody, mouse IgG1, kappa, V domains shown)
VH: EVQLQQSGPELVKPGASVKISCKTSGYSFTGYYMSWVKQSPEKSLEWIGEINPTTGGSTYNQKFKAKATLTVDKSSSTAYMQLKSLTSEDSAVYYCAREGYYSGISYDAMDYWGQGTSVTVSS
VL: DIQMTQTTSSLSASLGDRVTISCRASQDISNYLSWYQQKPDGTVKLLIYYTSRLHSGVPSRFSGSGSGTDYSLTISNLEQEDIATYFCQQGNTLPRTFGGGTKLEIKR
On to B3, for which the binding result in assay [3] and in assay [4] was “binds” throughout. In addition, the Kd in assay [2] was found to be 2.44 nM.

B4: mouse anti-USAG-1 neutralizing antibody A (E37) (antibody, mouse IgG1, kappa, V domains shown)
VH: QVQLQQSDAELVNPGASVKISCKVSGYTFTDHTIHWMKQRPEQGLEWIGYIYPGDGSTKYNEKFKGKATLTADKSSSTAYMQLNSLTSEDSAVYFCARTETYYGRIYYYAMDYWGQGTSVTVSS
VL: QIVLSQSPAILSASPGEKVTMTCRASSSVSYMYWYQQKPGSSPKPWIYATSNLASGVPIRFSGSGSGTSYSLTISRVEAEDAATYYCQQWSSNLTFGAGTKLELKR
With B4, the binding result in assay [5], in [6], in assay [7], in assay [8], in [9] and in assay [10] was “binds” each time. For the same molecule, the binding result in assay [11] and in [3] was “binds” each time. In addition, the Kd in [2] is 2.43 nM.
